Source: article PMC5298718

Target: NRP1-PerCP-Cy5.5 (carrier free recombinant neuropilin-1 coupled to PerCP-Cy5.5) (UniProt O14786)
Experiment: FRET or BRET; Scheme 3: VEGF (22.4 nM or 11.2 nM, diluted in PBS) incubated simultaneously in solution with the donor (RLuc8-Ra02 or RLuc8-4xGly-Ra02, cleared HEK293 lysate) and the acceptor NRP1-PerCP-Cy5.5, both in excess; n-CLZ in BRET assay buffer; BRET ratio magenta filter/blue filter, against a no-VEGF control

Chain of UniProt O14786 (O14786 22-856): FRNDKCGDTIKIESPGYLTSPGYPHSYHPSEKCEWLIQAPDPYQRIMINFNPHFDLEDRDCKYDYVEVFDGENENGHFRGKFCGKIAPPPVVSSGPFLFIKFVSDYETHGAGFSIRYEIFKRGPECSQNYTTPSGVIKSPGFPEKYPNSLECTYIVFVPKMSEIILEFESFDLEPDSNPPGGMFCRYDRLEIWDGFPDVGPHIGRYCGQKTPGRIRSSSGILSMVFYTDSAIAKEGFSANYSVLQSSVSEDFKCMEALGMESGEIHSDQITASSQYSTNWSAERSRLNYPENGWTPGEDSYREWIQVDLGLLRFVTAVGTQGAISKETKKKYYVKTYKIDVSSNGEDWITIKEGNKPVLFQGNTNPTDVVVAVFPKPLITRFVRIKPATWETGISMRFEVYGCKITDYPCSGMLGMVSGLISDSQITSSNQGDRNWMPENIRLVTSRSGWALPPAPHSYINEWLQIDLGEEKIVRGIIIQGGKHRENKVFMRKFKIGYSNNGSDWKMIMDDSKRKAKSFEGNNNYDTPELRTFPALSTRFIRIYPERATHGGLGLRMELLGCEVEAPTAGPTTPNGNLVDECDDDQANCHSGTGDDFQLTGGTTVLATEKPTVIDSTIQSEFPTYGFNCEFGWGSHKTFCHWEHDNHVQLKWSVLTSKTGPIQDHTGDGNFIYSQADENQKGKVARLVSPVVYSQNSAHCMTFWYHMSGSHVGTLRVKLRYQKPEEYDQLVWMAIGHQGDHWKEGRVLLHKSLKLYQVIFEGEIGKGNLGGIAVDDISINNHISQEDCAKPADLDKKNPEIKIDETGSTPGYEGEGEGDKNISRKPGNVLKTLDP

**Q.** What does the source list for “vascular endothelial growth factor (rhVEGF165) (ligand)”?
**A.** BRET ratio (donor RLuc8-4xGly-Ra02, 11.2 nM VEGF): 114 mBU; BRET ratio (donor RLuc8-4xGly-Ra02, 22.4 nM VEGF): 119 mBU; BRET ratio (donor RLuc8-Ra02, 11.2 nM VEGF): 110 mBU; BRET ratio (donor RLuc8-Ra02, 22.4 nM VEGF): 115 mBU
